Measurements reported in patent publication US20160010082A1.

Target: YPet-Mona
Assay: flow cytometry of E. coli displaying the construct, 50 nM YPet-Mona; 30 minutes of expression; reference CPX display

Sequence of YPet-Mona (O89100 263-322): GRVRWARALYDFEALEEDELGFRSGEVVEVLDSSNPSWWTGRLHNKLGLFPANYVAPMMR

fold improved display level compared to CPX: 9 fold
B1: eCPX displaying the P2 peptide at the C-terminus (protein)
chain: GQSGQGGQSGQSGDYNKNQYYGITAGPAYRINDWASIYGVVGVGYGKFQTTEYPTYKHDTSDYGFSYGAGLQFNPMENVALDFSYEQSRIRSVDVGTWILSVGYRFGSKSRRATSTVTGGYAQSDAQGQMNKMGGFNLKYRYEEDNSPLGVIGSFTYTEKSRTASGGQSGQPAPSIDRSTKPPL
